Test results published in patent US20180142222.
Where two headings read alike, the source gives them in different places.

Assays:
[1] = target: Cas9hinge (Cy3/Cy5-labelled reporter Cas9) C80S,C574S,D435C,E945C (Streptococcus pyogenes) (UniProt Q99ZW2); details: bound but (ratio)A indistinguishable from apo
[2] = target: Cas9HNH (Cy3/Cy5-labelled reporter Cas9; dCas9HNH for binding data) C80S,C574S,S355C,S867C (Streptococcus pyogenes) (UniProt Q99ZW2); details: direct binding assay estimate

sgRNA delta-spacer1-20
binding [1]: > 95 % bound

full-length sgRNA ; PAM-distal mismatch DNA
binding ([2]; (ratio)A falls with mismatch number, dCas9 gives stable footprint on these substrates): > 89 % bound

full-length sgRNA ; on-target DNA
binding ([2]; large FRET increase on target DNA): > 89 % bound
